Where a chain is given by its changes, count along the chain named.
T1: mouse FcγRII extracellular domain, C-terminal His tag (mouse, UniProt P08101 30-210)
T1 construct: also called mFcγRII; mFcgRII
T1 sequence: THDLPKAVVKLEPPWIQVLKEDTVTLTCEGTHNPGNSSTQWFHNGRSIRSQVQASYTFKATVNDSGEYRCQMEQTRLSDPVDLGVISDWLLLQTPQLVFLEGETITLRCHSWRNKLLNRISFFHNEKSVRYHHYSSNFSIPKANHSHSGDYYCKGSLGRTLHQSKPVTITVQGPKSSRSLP

T2: mouse FcγRIII extracellular domain, C-terminal His tag (mouse, UniProt P08508 31-215)
T2 construct: also called mFcγRIII; mFcgRIII
T2 chain: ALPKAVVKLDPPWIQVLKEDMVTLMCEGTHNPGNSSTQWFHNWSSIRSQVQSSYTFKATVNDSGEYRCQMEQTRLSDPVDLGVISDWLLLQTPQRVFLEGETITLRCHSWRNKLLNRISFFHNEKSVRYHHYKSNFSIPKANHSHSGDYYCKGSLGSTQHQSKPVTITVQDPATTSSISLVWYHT

B1: H237-MB749/MRAL-k0 (antibody, mouse IgG1, kappa)
heavy: QVQLQESGPGLVKPSETLSLTCAVSGHSISHDHAWSWVRQPPGEGLEWIGFISYSGITNYNPSLQGRVTISRDNSKNTLYLQMNSLRAEDTAVYYCARSLARTTAMDYWGEGTLVTVSSAKTTPPSVYPLAPGSAAQTNSMVTLGCLVKGYFPEPVTVTWNSGSLSSGVHTFPAVLQSDLYTLSSSVTVPSSTWPSETVTCNVAHPASSTKVDKKIVPRDCGCKPCICEPNEVELVFIFPPKPKDVLTITLTPKVTCVVVDISKDDPEVQFSWFVDDVEVHTAQTQPREELFNSTFRSVSELPIMHQDWLNGKEFKCRVNSAAFPAPIEKTISKTKGRPKAPQVYTIPPPKEQMAKDKVSLTCMITDFFPEDITVEWQWNGQPAENYKNTQPIMDTDGSYFVYSKLNVQKSNWEAGNTFTCSVLHEGLHNHHTEKSLSHSPGK
light: not shown
notes: copies: 2 + 2
B2: H237-MB751/MRAL-k0 (antibody, mouse IgG1, kappa)
heavy: B1 heavy with L291Q, K330R
light: not shown
notes: copies: 2 + 2
B3: H237-MB754/MRAL-k0 (antibody, mouse IgG1, kappa)
heavy: B1 heavy with L291Q, N320D
light: not shown
notes: copies: 2 + 2
B4: H237-MB756/MRAL-k0 (antibody, mouse IgG1, kappa)
heavy: B1 heavy with L291Q, S294L, K330R
light: not shown
notes: copies: 2 + 2
B5: H237-MB759/MRAL-k0 (antibody, mouse IgG1, kappa)
heavy: B1 heavy with L291Q, N320D, K330R
light: not shown
notes: copies: 2 + 2
B6: H237-MB760/MRAL-k0 (antibody, mouse IgG1, kappa)
heavy: B1 heavy with L291Q, S294L, N320D, K330R
light: not shown
notes: copies: 2 + 2
B7: H237-MB761/MRAL-k0 (antibody, mouse IgG1, kappa)
heavy: B1 heavy with L291Q, S294M, N320D, K330R
light: not shown
notes: copies: 2 + 2
B8: H237-MB766/MRAL-k0 (antibody, mouse IgG1, kappa)
heavy: B1 heavy with L291Q, N320M
light: not shown
notes: copies: 2 + 2
B9: H237-MB770/MRAL-k0 (antibody, mouse IgG1, kappa)
heavy: B1 heavy with L291Q, P327F
light: not shown
notes: copies: 2 + 2
B10: H237-MB771/MRAL-k0 (antibody, mouse IgG1, kappa)
heavy: B1 heavy with L291Q, P327Y
light: not shown
notes: copies: 2 + 2
B11: H237-MB773/MRAL-k0 (antibody, mouse IgG1, kappa)
heavy: B1 heavy with L291Q, E329Y
light: not shown
notes: copies: 2 + 2
B12: H237-MB776/MRAL-k0 (antibody, mouse IgG1, kappa)
heavy: B1 heavy with L291Q, T331Y
light: not shown
notes: copies: 2 + 2
B13: H237-MB779/MRAL-k0 (antibody, mouse IgG1, kappa)
heavy: B1 heavy with L291Q, S333W
light: not shown
notes: copies: 2 + 2
B14: H237-MB780/MRAL-k0 (antibody, mouse IgG1, kappa)
heavy: B1 heavy with L291Q, A323G
light: not shown
notes: copies: 2 + 2
B15: H237-MB782/MRAL-k0 (antibody, mouse IgG1, kappa)
heavy: B1 heavy with N320D
light: not shown
notes: copies: 2 + 2
B16: H237-MB783/MRAL-k0 (antibody, mouse IgG1, kappa)
heavy: B1 heavy with A322D
light: not shown
notes: copies: 2 + 2
B17: H237-MB784/MRAL-k0 (antibody, mouse IgG1, kappa)
heavy: B1 heavy with K330R
light: not shown
notes: copies: 2 + 2
B18: H237-MB785/MRAL-k0 (antibody, mouse IgG1, kappa)
heavy: B1 heavy with L291Q, N320D, A322D
light: not shown
notes: copies: 2 + 2
B19: H237-MB786/MRAL-k0 (antibody, mouse IgG1, kappa)
heavy: B1 heavy with L291Q, A322D, K330R
light: not shown
notes: copies: 2 + 2
B20: H237-MB787/MRAL-k0 (antibody, mouse IgG1, kappa)
heavy: B1 heavy with N320D, A322D
light: not shown
notes: copies: 2 + 2
B21: H237-MB788/MRAL-k0 (antibody, mouse IgG1, kappa)
heavy: B1 heavy with N320D, K330R
light: not shown
notes: copies: 2 + 2
B22: H237-MB789/MRAL-k0 (antibody, mouse IgG1, kappa)
heavy: B1 heavy with A322D, K330R
light: not shown
notes: copies: 2 + 2
B23: H237-MB790/MRAL-k0 (antibody, mouse IgG1, kappa)
heavy: B1 heavy with L291Q, N320D, A322D, K330R
light: not shown
notes: copies: 2 + 2
B24: H237-MB791/MRAL-k0 (antibody, mouse IgG1, kappa)
heavy: B1 heavy with N320D, A322D, K330R
light: not shown
notes: copies: 2 + 2
B25: H237-MB807/MRAL-k0 (antibody, mouse IgG1, kappa)
heavy: B1 heavy with N320M
light: not shown
notes: copies: 2 + 2

Target: T1, mouse FcγRII extracellular domain, …
Assay: SPR (Biacore T200), antibody captured on Protein L, mFcγR analyte
Protocol: (§1) Each altered antibody was analyzed for its interaction with each Fcγ receptor prepared above using Biacore T100 (GE Healthcare Japan Corp.), Biacore T200 (GE Healthcare Japan Corp.), Biacore A100, or Biacore 4000. The running buffer used was HBS-EP+ (GE Healthcare Japan Corp.). The assay temperature was set to 25° C. The sensor chips used were chips prepared by immobilizing Protein L (ACTIGEN or BioVision) onto Series S Sensor Chip CM5 (GE Healthcare Japan Corp.) or Series S Sensor Chip CM4 (GE Healthcare Japan Corp.) by the amine coupling method.
(§2) In order to calculate the KD value of each altered antibody for FcγR, kinetic analysis was conducted according to the following method: first, the antibody of interest was captured onto any of these chips and allowed to interact with mFcγR diluted with a running buffer. For the obtained sensorgram, the assay results were globally fit into the 1:1 Langmuir binding model using Biacore Evaluation Software to calculate an association rate constant ka (L/mol/s) and a dissociation rate constant kd (1/s). From these values, the dissociation constant KD (mol/L) was calculated.

Kd | relative mFcγRII-binding activity (mIgG1 = 1) | Binder
8.3 nM | 25.3 fold vs H237-mIgG1/MRAL-k0 | B1
8.25 nM | 25.4 fold vs H237-mIgG1/MRAL-k0 | B2
10 nM | 21 fold vs H237-mIgG1/MRAL-k0 | B3
19.8 nM | 10.6 fold vs H237-mIgG1/MRAL-k0 | B4
6.21 nM | 33.8 fold vs H237-mIgG1/MRAL-k0 | B5
14.9 nM | 14.1 fold vs H237-mIgG1/MRAL-k0 | B6
15.7 nM | 13.4 fold vs H237-mIgG1/MRAL-k0 | B7
15 nM | 14 fold vs H237-mIgG1/MRAL-k0 | B8
15.7 nM | 13.3 fold vs H237-mIgG1/MRAL-k0 | B9
15.2 nM | 13.8 fold vs H237-mIgG1/MRAL-k0 | B10
16.5 nM | 12.7 fold vs H237-mIgG1/MRAL-k0 | B11
18.6 nM | 11.3 fold vs H237-mIgG1/MRAL-k0 | B12
21 nM | 10 fold vs H237-mIgG1/MRAL-k0 | B13
10.4 nM | 20.2 fold vs H237-mIgG1/MRAL-k0 | B14
9.88 nM | 21.3 fold vs H237-mIgG1/MRAL-k0 | B15
6.85 nM | 30.6 fold vs H237-mIgG1/MRAL-k0 | B16
14.3 nM | 14.7 fold vs H237-mIgG1/MRAL-k0 | B17
8.43 nM | 24.9 fold vs H237-mIgG1/MRAL-k0 | B18
7.73 nM | 27.2 fold vs H237-mIgG1/MRAL-k0 | B19
5.45 nM | 38.5 fold vs H237-mIgG1/MRAL-k0 | B20
9.38 nM | 22.4 fold vs H237-mIgG1/MRAL-k0 | B21
6.8 nM | 30.9 fold vs H237-mIgG1/MRAL-k0 | B22
6.28 nM | 33.5 fold vs H237-mIgG1/MRAL-k0 | B23
5.23 nM | 40.1 fold vs H237-mIgG1/MRAL-k0 | B24
9.58 nM | 21.9 fold vs H237-mIgG1/MRAL-k0 | B25

Target: T2, mouse FcγRIII extracellular domain, …
Assay: as above
Protocol: as §1, §2

Kd | relative mFcγRIII-binding activity (mIgG1 = 1) | Binder
740 nM | 0.4 fold vs H237-mIgG1/MRAL-k0 | B1
890 nM | 0.3 fold vs H237-mIgG1/MRAL-k0 | B2
1130 nM | 0.2 fold vs H237-mIgG1/MRAL-k0 | B3
1330 nM | 0.2 fold vs H237-mIgG1/MRAL-k0 | B4
646 nM | 0.4 fold vs H237-mIgG1/MRAL-k0 | B5
1020 nM | 0.3 fold vs H237-mIgG1/MRAL-k0 | B6
1570 nM | 0.2 fold vs H237-mIgG1/MRAL-k0 | B7
1060 nM | 0.3 fold vs H237-mIgG1/MRAL-k0 | B8
1170 nM | 0.2 fold vs H237-mIgG1/MRAL-k0 | B9
1070 nM | 0.3 fold vs H237-mIgG1/MRAL-k0 | B10
1310 nM | 0.2 fold vs H237-mIgG1/MRAL-k0 | B11
1430 nM | 0.2 fold vs H237-mIgG1/MRAL-k0 | B12
1610 nM | 0.2 fold vs H237-mIgG1/MRAL-k0 | B13
716 nM | 0.4 fold vs H237-mIgG1/MRAL-k0 | B14
567 nM | 0.5 fold vs H237-mIgG1/MRAL-k0 | B15
378 nM | 0.7 fold vs H237-mIgG1/MRAL-k0 | B16
734 nM | 0.4 fold vs H237-mIgG1/MRAL-k0 | B17
577 nM | 0.5 fold vs H237-mIgG1/MRAL-k0 | B18
493 nM | 0.6 fold vs H237-mIgG1/MRAL-k0 | B19
295 nM | 1 fold vs H237-mIgG1/MRAL-k0 | B20
475 nM | 0.6 fold vs H237-mIgG1/MRAL-k0 | B21
343 nM | 0.8 fold vs H237-mIgG1/MRAL-k0 | B22
402 nM | 0.7 fold vs H237-mIgG1/MRAL-k0 | B23
256 nM | 1.1 fold vs H237-mIgG1/MRAL-k0 | B24
579 nM | 0.5 fold vs H237-mIgG1/MRAL-k0 | B25

— patent US20150203577A1 (Chugai, published 2015)
